From patent publication US20140242093A1, “METHODS AND COMPOSITIONS FOR MODULATING THE INNATE IMMUNE RESPONSE AND/OR MYOGENESIS IN A MAMMALIAN SUBJECT” (FRED HUTCHINSON CANCER RESEARCH CENTER, priority 2011, published 2014)

How the values were obtained:
[1] = system: 31-bp oligonucleotides containing the putative DUX4 binding site; assay: Electromobility shift assay (EMSA); design: species or system human; settings: in vitro translated protein; TRIM48, CSF1R, THE1D oligos
Experimental: EMSA was performed with ^32P-labeled 31-bp oligonucleotides from endogenous genomic sequences containing the putative DUX4 binding site as probes (sequences below; only forward shown). Radiolabeled probes were incubated with in vitro translated protein generated from pCS2-DUX4-fl or pCS2-DUX4-s^2 vectors using the TNT SP6 Coupled Wheat Germ Extract System (Promega) according to manufacturer's instructions. To obtain supershift of protein-DNA complexes, 0.1 μg of E14-3 anti-DUX4 rabbit monoclonal antibody was added to the mixtures. For competition experiments, excess unlabeled probes of either wild-type or mutant sequences were included in the binding reaction. The gels were prepared and run as previously described (Knoepfler et al., 1999).

[2] = system: Cultured control human myoblasts; assay: Beta-defensin 3 and innate immune response, real-time qPCR of IFIH1, ISG20, DEFB103; format: cell-based; settings: RT-qPCR, similar titers, FIG. 7A
Experimental: Cultured control human myoblasts were grown to 80% confluence and infected with equivalent titers of lenti-GFP, lenti-DUX4-s and lenti-DUX4-fl in growth media supplemented with 8 μg/mL polybrene. Expression of innate immune responsive genes including IFIH1 (MDA5), ISG20 and DEFB103 were assessed by real-time qPCR as previously described at 24 hours (primer sequences below). For conditioned media, cells were infected with lenti-DUX4-fl for 12 hours, thoroughly washed 3 times with PBS and switched to fresh growth media to condition for 12 hours. Control conditioned media was produced from cells not infected with any lentivirus. Myoblasts were infected with lenti-GFP in either control conditioned media, lenti-DUX4-fl conditioned media or regular growth media supplemented with 1 μM human β-defensin 3 (Peptides International, Louisville, Ky.). Expression of innate immune responsive genes were examined after 24 hours.

B1: DUX4-s: short splice form of DUX4 (SEQ ID NO:112), keeps the double-homeobox domains, lacks the C-terminal activation domain (protein, listed as Homo sapiens)
chain: MALPTPSDSTLPAEARGRGRRRRLVWTPSQSEALRACFERNPYPGIATRERLAQAIGIPEPRVQIWFQNERSRQLRQHRRESRPWPGRRGPPEGRRKRTAVTGSQTALLLRAFEKDRFPGIAAREELARETGLPESRIQIWFQNRRARHPGQGGRAPAQV
[1]
  binding to DUX4 core motifs: specifically binds the same core binding site as DUX4-fl
[2]
  induction of the innate immune response in myoblasts: induced the innate immune response
